# Laboratory results reported in patent US20140377805A1 (published 2014).
# T1: recombinant human IL-1α (human, UniProt P01583 113-271)
# T1 sequence (looked up): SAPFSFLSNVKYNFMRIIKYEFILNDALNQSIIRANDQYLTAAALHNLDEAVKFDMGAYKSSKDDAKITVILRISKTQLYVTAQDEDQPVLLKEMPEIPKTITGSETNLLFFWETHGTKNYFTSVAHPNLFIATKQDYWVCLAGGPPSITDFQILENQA
# Biological target: T1, recombinant human IL-1α
# Experiment: cell-based or functional assay
binder,measurement,value
"hIL-1a/bDVD1-Ig (bispecific antibody, human IgG1, kappa) heavy: not shown light: NIVLTQSPASLAVSLGQRATISCRASESVDSYGNSYMHWYQQKPGQPPKLLIYLASNLESGVPARFSGSGSRTDFTLTIDPVEADDAATYYCQQNNEDPFTFGSGTKLEIKRNIQMTQTTSSLSASLGDRVTISCRASQDISNCLNWYQQKPDGTVKLLIYYTSRLHSGVPSRFSGSGSGTDYSLTISNLEQEDIATYFCQQGKTLPYAFGGGTKLEINRTVAAPSVFIFPPSDEQLKSGTASVVCLLNNFYPREAKVQWKVDNALQSGNSQESVTEQDSKDSTYSLSSTLTLSKADYEKHKVYACEVTHQGLSSPVTKSFNRGEC","neutralizing activity in the MRC-5 bioassay, fold less than the chimeric Abs",3 fold
